Data taken from patent US20250101135A1.

What was measured:
[1] = target: mouse 4-1BB on activated mouse splenocytes (mouse) (UniProt P20334); assay: flow cytometry, activated mouse splenocytes, CD4+ T cells, PE anti-human IgG Fc secondary, MFI baseline corrected
[2] = target: mouse 4-1BB on activated mouse splenocytes (mouse) (UniProt P20334); assay: flow cytometry, activated mouse splenocytes, CD8+ T cells, PE anti-human IgG Fc secondary, MFI baseline corrected

mouse 4-1BB on activated mouse splenocytes (mouse), sequence (P20334 24-256): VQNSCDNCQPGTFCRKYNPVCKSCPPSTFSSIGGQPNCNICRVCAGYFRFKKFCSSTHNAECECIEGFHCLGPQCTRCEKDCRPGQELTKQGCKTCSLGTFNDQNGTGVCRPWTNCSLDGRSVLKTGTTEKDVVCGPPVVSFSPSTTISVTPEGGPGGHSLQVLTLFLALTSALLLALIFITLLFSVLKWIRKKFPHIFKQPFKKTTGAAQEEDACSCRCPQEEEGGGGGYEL

EC50 (read off the curve) [1]: 0.08 nM
EC50 (read off the curve) [2]: 0.09 nM
Substance: anti-mouse CD137-specific human IgG1 P329G LALA antibody (clone Lob12.3)
